Reference: paper PMC5958903

Target: brain-derived neurotrophic factor
Assay: native gel or EMSA

stoichiometry N (TrkB per BDNF dimer): 1
Substance: soluble, recombinant extracellular domain of tropomyosin receptor kinase B (from UniProt Q16620 32-430)
